Data from patent US20070160605A1 (RINAT NEUROSCIENCE, published 2007).
Several values for one entry are separate records, joined by “and”; a condition that tells them apart may be missing. Equal entries are not always repeated.

Target: T1, human NGF (human, UniProt P01138 122-241, limits assumed)
T1 construct: also called hNGF; human nerve growth factor
Test: binding affinity, method not stated

T1 sequence (P01138 122-241 limits assumed): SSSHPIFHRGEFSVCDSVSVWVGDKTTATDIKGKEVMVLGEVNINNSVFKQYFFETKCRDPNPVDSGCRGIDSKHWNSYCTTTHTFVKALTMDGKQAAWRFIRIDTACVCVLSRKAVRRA

B1: humanized anti-NGF antibody E3 (antibody, V domains shown)
VH: QVQLQESGPGLVKPSETLSLTCTVSGFSLIGYDLNWIRQPPGKGLEWIGIIWGDGTTDYNSAVKSRVTISKDTSKNQFSLKLSSVTAADTAVYYCARGGYWYATSYYFDYWGQGTLVTVS
VL: DIQMTQSPSSLSASVGDRVTITCRASQSISNNLNWYQQKPGKAPKLLIYYTSRFHSGVPSRFSGSGSGTDFTFTISSLQPEDIATYYCQQEHTLPYTFGQGTKLEIK
Kd: ~0.07 nM and ~0.1 nM
